Laboratory results from patent US20170362314A1 (CANCER RESEARCH TECHNOLOGY, published 2017).

Key:
[1] = target: human CXCL12 (soluble ligand in the cell migration assays) (human, UniProt P48061-2 22-89, limits assumed); test: cell-based or functional assay
[2] = target: T1, biotinylated CXCL12 (synthesised 68 amino acid CXCL12) (human, UniProt P48061 22-89, biotinylated (site not stated)); test: SPR (Biacore T100), Fab over biotinylated CXCL12 immobilised on a streptavidin chip, 1:1 Langmuir binding model [Continued) (panel B table]
T1 construct: also called SDF-1
T1 sequence (P48061 22-89 limits assumed): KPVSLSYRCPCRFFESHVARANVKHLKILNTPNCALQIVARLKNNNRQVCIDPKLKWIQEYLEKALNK
Method: (§1) FIG. 3. Affinity measurement of anti-CXCL12 antibodies using SPR A) Sensograms of multiple concentrations of lead and parental anti-CXCL12 Fabs binding to biotinylated CXCL12 immobilised on a streptavidin chip (carboxymethylated dextran matrix pre-immobilised with streptavidin). […] The equilibrium dissociation constant (KD) of the parent clone 093_2D06 was calculated using steady state binding model due to its very fast off-rate. […] The binding constants of these antibodies were determined using two-state binding model. Biacore T100 evaluation software was used for all calculations.
(§2) The lead anti-CXCL12 antibodies and their parent clones were subjected to a full kinetic analysis to determine the improvement in binding constants after affinity maturation. The binding of the Fab antibodies to biotinylated CXCL12 immobilised on a streptavidin chip was analysed using SPR (FIG. 3). Equilibrium dissociation constants (KD) of these antibodies were determined using a binding model appropriate for each binding interaction (FIGS. 3B and C). […] Such binding profiles are generally associated with binding interactions that involve antibody (or any other analyte) induced conformational change of the ligand resulting in a two-step binding. […]

[3] = target: T1, biotinylated CXCL12 (synthesised 68 …); test: SPR (Biacore T100), Fab over biotinylated CXCL12 immobilised on a streptavidin chip, 1:1 Langmuir binding model [panel B table]
Method: as §1, §2

[4] = target: T1, biotinylated CXCL12 (synthesised 68 …); test: affinity constant for human CXCL12, Fab format; method not restated; comparison with WO 2008/018641; method not restated
[5] = target: T1, biotinylated CXCL12 (synthesised 68 …); test: SPR (Biacore T100): Fab over biotinylated CXCL12 on a streptavidin chip, 1:1 Langmuir model; SPR kinetic analysis, Fab over biotinylated CXCL12 on streptavidin chip
Method: as §1, §2

[6] = target: T1, biotinylated CXCL12 (synthesised 68 …); test: SPR: Fab over biotinylated CXCL12 on a streptavidin chip
Method: as §1, §2

[7] = target: T1, biotinylated CXCL12 (synthesised 68 …); test: SPR (Biacore T100), Fab over biotinylated CXCL12 immobilised on a streptavidin chip, two-state binding model [Continued) (panel C table]
Method: as §1, §2

[8] = target: T1, biotinylated CXCL12 (synthesised 68 …); test: SPR (Biacore T100), Fab over biotinylated CXCL12 immobilised on a streptavidin chip, two-state binding model [panel C table]
Method: as §1, §2

[9] = target: T1, biotinylated CXCL12 (synthesised 68 …); test: SPR (Biacore T100): Fab over biotinylated CXCL12 on a streptavidin chip, two-state binding model; SPR, two-state binding model
Method: as §1, §2

[10] = target: T1, biotinylated CXCL12 (synthesised 68 …); test: SPR: Fab over biotinylated CXCL12 on a streptavidin chip, two-state binding model
Method: as §1, §2

human CXCL12 (soluble ligand in the cell migration assays), sequence (P48061 22-89 limits assumed): as above

B1: 114_3H1 IgG (human IgG2) (antibody, V domains shown)
VH: QVQLVQSGAEVKKPGASVKVSCKVSGYTLTELSMHWVRQAPGKGLEWMGGFDPEDGETIYAQKFQGRVTMTEDTSTDTAYMELSSLGSEDTAVYYCARRVWGSYRPNDAFDIWGQGTLVTVSS
VL: DIQMTQSPSSLSASVGDRVTITCRASQSISDYVNWYQQKPGKAPNLLMFAASTSQSGVPSRFTGSGSGTDFTLTISSLQPEDFATYFCQQSYSPPYTFGQGTKVEIKR
IC50, transwell migration of TOV-21G cells towards CXCL12 (further replicate experiments) [1]: 5 nM

B2: 114_3H1 Fab (Fab, V domains shown)
VH: B1 VH
VL: B1 VL
notes: Fab expressed from pBIOCAM-7 in HEK-293F cells, with hexa-histidine and tri-FLAG tags
koff [2]: 0.00051 s⁻¹
kon [3]: 490000 M⁻¹ s⁻¹
Kd [4]: 2.4 nM
Kd [5]: 1 nM
fold improvement in affinity from its parent clone 093_2D06 [6]: 3800 fold

B3: 113_1H12 in a human IgG2 format (antibody, V domains shown)
VH: EVQLVQSGAEVKKPGASVKVSCKTSGYTFTNYGISWVRQAPGQGLEWMGWISAYNGNTNYAQKLQGRVTMTTDTSTSTAYMELRSLRSDDTAVYYCARAGGVYYDYFTDYWGQGTMVTVSS
VL: QSELTQPPSASGTPGQRVTISCSGSRSNIGSNSVNWYQQLPGTAPKLLIYNNDERPSGVPDRFSGSKSGTSASLAISGLQSEDEADYFCAAWDDSLNVGELFGGGTKLTVLG
IC50, transwell migration of TOV-21G cells towards CXCL12 (further replicate experiments) [1]: 9 nM

B4: 113_1H12 Fab (Fab, V domains shown)
VH: B3 VH
VL: B3 VL
notes: as for B2
ka 2 [7]: 0.015 s⁻¹
kd 2 [7]: 0.00079 s⁻¹
ka 1 [8]: 510000 M⁻¹ s⁻¹
kd 1 [8]: 0.04 s⁻¹
Kd [4]: 4.2 nM
Kd [9]: 3.7 nM
fold improvement in affinity following light chain shuffling (against its parent clone) [10]: 4.5 fold
